Results reported in patent US10568344B2, “Methods of improving animal performance” (Novozymes A/S, priority 2015, dated 2020).
Like-named read-outs stand apart in the source and are kept apart here. Marks after values point to notes of the source that are not given here.

Experiments:
[1] = system: Clostridium perfringens DSM756; format: cell-based; conditions: for Diameter of clearing zone: lysozymes 100 μg/ml, bacitracin 50 μg/ml
[2] = system: Exiguobacterium undae (DSM14481); assay: Lysozyme activity turbidity assay (optical density drop); format: biochemical; conditions: pH 6
[3] = system: Micrococcus lysodeikticus ATTC No. 4698; assay: as above; conditions: pH 6
[4] = In vivo piglet trial, growth performance; parameters: species or system weaned piglets
Procedure: The trial was performed from Oct. 23 to Dec. 4, 2014 at the Research Center for Animal Nutrition (DSM Nutritional Products France, F-68305 Village-Neuf) according to the official French guidelines for experiments with live animals. One hundred and four castrated male crossbred (Large-White (female)×Redon (male)) weaned piglets having 28 days of age supplied by the commercial farm “[…] du Rhin” located in Balgau (France), were used in a 42-day experiment. The initial bodyweight of the piglets was 7.88±0.675 kg. They were sorted by body weight into 32 groups of 3 or 4 piglets and randomly allotted to each dietary treatment. Each group of animals was placed in one flat-deck cages and allocated to one of the different treatments. Each treatment was replicated with 8 cages using a total of 26 animals (6 cages of 3 animals/treatment and 2 cages of 4 animals/treatment) per treatment. […] Animals were housed in an environmentally controlled room. Room temperature was initially 27° C. and was lowered weekly by about 2° C. until 21-22° C. and relative humidity percentage was 50%. The experimental diets (Pre-Starter and Starter) were fed ad libitum in two feeding phases from day 0 to 14 (phase 1, Pre-starter) and day 14 to 42 (phase 2, Starter). The ingredient composition and the calculated nutrient levels of the experimental diets for phases 1 and 2 are presented in table 11. Both diets were formulated to meet the animals' requirements according NRC (2012) and were fed in pelleted form. Pelleting conditions were at 70° C. for 30 seconds. […] No additional enzymes (e.g. phytase) were added to the feed. […] Appropriate amount of the liquid preparations of lysozyme was diluted in water and sprayed onto the respective pelleted feed to get the final concentrations in the feed corresponding to the different treatments. For procedural balance of all treatments the same volume of water were also sprayed onto the pellets of the control diets. Body weight of the individual animals and feed consumption per pen were recorded on days 14 and 42 of the study. […] The experimental unit was the piglet, except for ADFI and FCR which were measured by cage, and in both cases, treatment was used as class variable. One-factorial ANOVA and Student-Newman-Keuls test was used to assess differences among means in treatment groups.

[5] = In vivo broiler trial 3, growth performance; parameters: species or system male broiler chickens; Motality: unit not given here
Procedure: The in vivo trial was carried out as described in example 7, except the feed was supplemented with the GH25 lysozyme (SEQ ID NO: 1) at 12.5 or 25 mg per kg feed, the GH24 lysozyme (SEQ ID NO: 4) at 12.5 or 25 mg per kg feed or with Avilamycin at an inclusion level of 10 mg/kg. No additional enzymes (e.g. phytase) were added to the feed. The experimental diets (Starter, Grower and Finisher) were based on soybean meal, wheat and rye (12%) as main ingredients (Table 8). The diets were formulated to contain 225 g crude protein and 12.5 MJ/kg MEN for the starter period, 215 g crude protein and 12.8 MJ/kg MEN for the grower period and 205 g crude protein and 13.0 MJ/kg MEN for the finisher period.

[6] = Finisher (d 36-42), 12.5 mg/kg feed
[7] = Finisher (d 36-42), 25 mg/kg feed
[8] = Grower (d 22-36), 12.5 mg/kg feed
[9] = Grower (d 22-36), 25 mg/kg feed
[10] = Starter (d 1-22), 12.5 mg/kg feed
[11] = Starter (d 1-22), 25 mg/kg feed
[12] = Whole period (d 1-42), 12.5 mg/kg feed
[13] = Whole period (d 1-42), 25 mg/kg feed

B1: SEQ ID NO: 4: mature amino acid sequence of a wild type GH24 lysozyme from Trichophaea saccata (protein, listed as Trichophaea saccata)
chain: YPVKTDLHCRSSPSTSASIVRTYSSGTEVQIQCQTTGTSVQGSNVWDKTQHGCYVADYYVKTGHSGIFTTKCGSSSGGGSCKPPPINAATVALIKEFEGFVPKPAPDPIGLPTVGYGHLCKTKGCKEVPYSFPLTQETATKLLQSDIKTFTSCVSNYVKDSVKLNDNQYGALASWAFNVGCGNVQTSSLIKRLNAGENPNTVAAQELPKWKYAGGKVMPGLVRRRNAEVALFKKPSSVQAHPPKC
modifications: mat_peptide (1)..(245)
For B1, the “Diameter of clearing zone” value ([1]; Experiment 1, 1/2 MHB pH 6) was 11 mm, the “Diameter of clearing zone” value ([1]; Experiment 1, 1/10 MHB pH 7) was 9 mm and the “Diameter of clearing zone” value ([1]; Experiment 2, 1/2 MHB pH 6) was 10 mm. For the same molecule, the “Diameter of clearing zone” value ([1]; Experiment 2, 1/10 MHB pH 7) was 8 mm, the “Zones around the wells challenged with the enzyme” value ([1]; both conditions tested (1/10 MHB pH 7 and ½ MHB pH 6)) was 8-11 mm and the “Lysozyme activity as measured by Optical Density Drop” value [2] was “++ (pH 6)”. The “Lysozyme activity as measured by Optical Density Drop” value [3] was “++ (pH 6)”, the “ADFI, % relative NC” value ([4]; day 0-14, 50 ppm) was 92.5% and the “ADFI, Mean” value ([4]; day 0-14, 50 ppm) was 333 g/day. The “ADWG, % relative NC” value ([4]; day 0-14, 50 ppm) was 91.4%, the “ADWG, Mean” value ([4]; day 0-14, 50 ppm) was 265 g/day and the “FCR, % relative NC” value ([4]; day 0-14, 50 ppm) was 102.6%. The “FCR, Mean” value ([4]; day 0-14, 50 ppm) was 1.272^b, the “ADFI, % relative NC” value ([4]; day 0-42, 50 ppm) was 100.8% and the “ADFI, Mean” value ([4]; day 0-42, 50 ppm) was 740^b g/d. The “ADWG, % relative NC” value ([4]; day 0-42, 50 ppm) was 107.8%, the “ADWG, Mean” value ([4]; day 0-42, 50 ppm) was 538 g/day and the “EPEF, % relative NC” value ([4]; day 0-42, 50 ppm) was 115.3%. For the same molecule, the “EPEF, Mean” value ([4]; day 0-42, 50 ppm) was 391, the “FCR, % relative NC” value ([4]; day 0-42, 50 ppm) was 92.9% and the “FCR, Mean” value ([4]; day 0-42, 50 ppm) was 1.379^a. For the same molecule, the “ADFI, % relative NC” value ([4]; day 14-42, 50 ppm) was 101.5%, the “ADFI, Mean” value ([4]; day 14-42, 50 ppm) was 944^c g/d and the “ADWG, % relative NC” value ([4]; day 14-42, 50 ppm) was 111.8%. The “ADWG, Mean” value ([4]; day 14-42, 50 ppm) was 674 g/day, the “FCR, % relative NC” value ([4]; day 14-42, 50 ppm) was 90.9% and the “FCR, Mean” value ([4]; day 14-42, 50 ppm) was 1.404^a. For the same molecule, the “Improvement on FCR compared to the negative control” value ([4]; overall period (day 0 to day 42), 50 mg/kg) was 7.1%, the “Improvement to FCR compared to NC” value ([4]; starter period, day 15 to day 42, 50 mg/kg) was 9.1% and the “Improvement of ADWG compared to the negative control diet” value ([4]; starter period, 50 mg/kg) was 11.8%. For the same molecule, the “EPEF improvement compared to the negative control” value ([4]; whole period, 50 mg/kg) was 15.3%, the “Improvement of ADWG compared to the negative control diet” value ([4]; whole period, 50 mg/kg) was 7.8% and the “Benefit over the NC diet” value ([5]; 12.5 mg/kg) was “did not show any benefit”. The FCR [5, 6] was 1.969, the “FCR, Relative to C (%)” value [5, 6] was 100.4% and the Feed intake [5, 6] was 1560 g/b. The “Feed intake, Relative to C (%)” value [5, 6] was 104.8%, the Weight gain [5, 6] was 795 g/b and the “Weight gain, Relative to C (%)” value [5, 6] was 104.4%. For the same molecule, the FCR [5, 7] was 1.919, the “FCR, Relative to C (%)” value [5, 7] was 97.9% and the Feed intake [5, 7] was 1524 g/b. The “Feed intake, Relative to C (%)” value [5, 7] was 102.5%, the Weight gain [5, 7] was 800 g/b and the “Weight gain, Relative to C (%)” value [5, 7] was 105.1%. For the same molecule, the FCR [5, 8] was 1.692, the “FCR, Relative to C (%)” value [5, 8] was 98.2% and the Feed intake [5, 8] was 2298 g/b. For the same molecule, the “Feed intake, Relative to C (%)” value [5, 8] was 100.5%, the Weight gain [5, 8] was 1359 g/b and the “Weight gain, Relative to C (%)” value [5, 8] was 102.4%. The FCR [5, 9] was 1.714, the “FCR, Relative to C (%)” value [5, 9] was 99.5% and the Feed intake [5, 9] was 2336 g/b. The “Feed intake, Relative to C (%)” value [5, 9] was 102.2%, the Weight gain [5, 9] was 1364 g/b and the “Weight gain, Relative to C (%)” value [5, 9] was 102.7%. The FCR [5, 10] was 1.469, the “FCR, Relative to C (%)” value [5, 10] was 102.0% and the Feed intake [5, 10] was 1608 g/b. The “Feed intake, Relative to C (%)” value [5, 10] was 101.9%, the Weight gain [5, 10] was 1095 g/b and the “Weight gain, Relative to C (%)” value [5, 10] was 99.9%. The FCR [5, 11] was 1.414, the “FCR, Relative to C (%)” value [5, 11] was 98.1% and the Feed intake [5, 11] was 1603 g/b. For the same molecule, the “Feed intake, Relative to C (%)” value [5, 11] was 101.6%, the Weight gain [5, 11] was 1133 g/b and the “Weight gain, Relative to C (%)” value [5, 11] was 103.4%. The EPEF [5, 12] was 408, the “EPEF, Relative to C (%)” value [5, 12] was 97.6% and the FCR [5, 12] was 1.683. The “FCR, Relative to C (%)” value [5, 12] was 100.2%, the Feed intake [5, 12] was 5466 g/b and the “Feed intake, Relative to C (%)” value [5, 12] was 102.1%. The Motality [5, 12] was 11.3, the Weight gain [5, 12] was 3249 g/b and the “Weight gain, Relative to C (%)” value [5, 12] was 102.0%. For the same molecule, the EPEF [5, 13] was 425, the “EPEF, Relative to C (%)” value [5, 13] was 101.7% and the FCR [5, 13] was 1.657. For the same molecule, the “FCR, Relative to C (%)” value [5, 13] was 98.6%, the Feed intake [5, 13] was 5450 g/b and the “Feed intake, Relative to C (%)” value [5, 13] was 101.9%. The Motality [5, 13] was 10.0, the Weight gain [5, 13] was 3290 g/b and the “Weight gain, Relative to C (%)” value [5, 13] was 103.3%. For the same molecule, the “EPEF improvement compared to NC diet” value ([5]; whole period, 25 mg/kg) was 2.4% and the “FCR improvement compared to NC diet” value ([5]; whole period, 25 mg/kg) was 1.2%.
